# From PMC4157451 (Acta Crystallographica Section D: Biological Crystallography, 2014)
# Molecular target: the molecule itself
# Test: not stated; assembly of the purified point mutants in solution (Supplementary Fig. S3)
row,Protein,stoichiometry N
1,"PvuRts1I Y210F mutant (enzyme, UniProt Q52612 1-293, looked up, PvuRts1I with a point mutation; also called Y210F variant; source: E. coli Rosetta2 (DE3), purified under identical conditions to wild-type PvuRts1I) MSKTDYILRALSKISHKRWEHYIINRVVHTLDDPDIEFVCQQCIRKEGHLGKIYLADLLFPQLNLYLEIDEAHHDSNDARKADAVRRLDIVEATGFQEERIPASNITLSEVNKLVDEFVRLVKDKKEELENQGLFFRWDYDERYSAKKHINTGYMAVGPNSVFRYHRDALQCFGYRREGHHQSGGWALPAEVAQSIGLTGRVMVWFPRLFEAGEWKNALSADGNKITEQSLNATRNYQETWDYRIVMAHSRDELNRTLYRFLGVFAIDVDKSSDEVKVFSRVYSRVNVYRSQN",2
2,"PvuRts1I N217K mutant (enzyme, UniProt Q52612 1-293, looked up, PvuRts1I with a point mutation; source: E. coli Rosetta2 (DE3), purified under identical conditions to wild-type PvuRts1I) MSKTDYILRALSKISHKRWEHYIINRVVHTLDDPDIEFVCQQCIRKEGHLGKIYLADLLFPQLNLYLEIDEAHHDSNDARKADAVRRLDIVEATGFQEERIPASNITLSEVNKLVDEFVRLVKDKKEELENQGLFFRWDYDERYSAKKHINTGYMAVGPNSVFRYHRDALQCFGYRREGHHQSGGWALPAEVAQSIGLTGRVMVWFPRLYEAGEWKKALSADGNKITEQSLNATRNYQETWDYRIVMAHSRDELNRTLYRFLGVFAIDVDKSSDEVKVFSRVYSRVNVYRSQN",2
3,"PvuRts1I N217A mutant (enzyme, UniProt Q52612 1-293, looked up, PvuRts1I with a point mutation; source: E. coli Rosetta2 (DE3), purified under identical conditions to wild-type PvuRts1I) MSKTDYILRALSKISHKRWEHYIINRVVHTLDDPDIEFVCQQCIRKEGHLGKIYLADLLFPQLNLYLEIDEAHHDSNDARKADAVRRLDIVEATGFQEERIPASNITLSEVNKLVDEFVRLVKDKKEELENQGLFFRWDYDERYSAKKHINTGYMAVGPNSVFRYHRDALQCFGYRREGHHQSGGWALPAEVAQSIGLTGRVMVWFPRLYEAGEWKAALSADGNKITEQSLNATRNYQETWDYRIVMAHSRDELNRTLYRFLGVFAIDVDKSSDEVKVFSRVYSRVNVYRSQN",2
4,"PvuRts1I E228K mutant (enzyme, UniProt Q52612 1-293, looked up, PvuRts1I with a point mutation; source: E. coli Rosetta2 (DE3), purified under identical conditions to wild-type PvuRts1I) MSKTDYILRALSKISHKRWEHYIINRVVHTLDDPDIEFVCQQCIRKEGHLGKIYLADLLFPQLNLYLEIDEAHHDSNDARKADAVRRLDIVEATGFQEERIPASNITLSEVNKLVDEFVRLVKDKKEELENQGLFFRWDYDERYSAKKHINTGYMAVGPNSVFRYHRDALQCFGYRREGHHQSGGWALPAEVAQSIGLTGRVMVWFPRLYEAGEWKNALSADGNKITKQSLNATRNYQETWDYRIVMAHSRDELNRTLYRFLGVFAIDVDKSSDEVKVFSRVYSRVNVYRSQN",2
5,"PvuRts1I A212N mutant (enzyme, UniProt Q52612 1-293, looked up, PvuRts1I with a point mutation; source: E. coli Rosetta2 (DE3), purified under identical conditions to wild-type PvuRts1I) MSKTDYILRALSKISHKRWEHYIINRVVHTLDDPDIEFVCQQCIRKEGHLGKIYLADLLFPQLNLYLEIDEAHHDSNDARKADAVRRLDIVEATGFQEERIPASNITLSEVNKLVDEFVRLVKDKKEELENQGLFFRWDYDERYSAKKHINTGYMAVGPNSVFRYHRDALQCFGYRREGHHQSGGWALPAEVAQSIGLTGRVMVWFPRLYENGEWKNALSADGNKITEQSLNATRNYQETWDYRIVMAHSRDELNRTLYRFLGVFAIDVDKSSDEVKVFSRVYSRVNVYRSQN",2
6,"PvuRts1I W215A mutant (enzyme, UniProt Q52612 1-293, looked up, PvuRts1I with a point mutation; source: E. coli Rosetta2 (DE3), purified under identical conditions to wild-type PvuRts1I) MSKTDYILRALSKISHKRWEHYIINRVVHTLDDPDIEFVCQQCIRKEGHLGKIYLADLLFPQLNLYLEIDEAHHDSNDARKADAVRRLDIVEATGFQEERIPASNITLSEVNKLVDEFVRLVKDKKEELENQGLFFRWDYDERYSAKKHINTGYMAVGPNSVFRYHRDALQCFGYRREGHHQSGGWALPAEVAQSIGLTGRVMVWFPRLYEAGEAKNALSADGNKITEQSLNATRNYQETWDYRIVMAHSRDELNRTLYRFLGVFAIDVDKSSDEVKVFSRVYSRVNVYRSQN",2
7,"PvuRts1I N217D mutant (enzyme, UniProt Q52612 1-293, looked up, PvuRts1I with a point mutation; source: E. coli Rosetta2 (DE3), purified under identical conditions to wild-type PvuRts1I) MSKTDYILRALSKISHKRWEHYIINRVVHTLDDPDIEFVCQQCIRKEGHLGKIYLADLLFPQLNLYLEIDEAHHDSNDARKADAVRRLDIVEATGFQEERIPASNITLSEVNKLVDEFVRLVKDKKEELENQGLFFRWDYDERYSAKKHINTGYMAVGPNSVFRYHRDALQCFGYRREGHHQSGGWALPAEVAQSIGLTGRVMVWFPRLYEAGEWKDALSADGNKITEQSLNATRNYQETWDYRIVMAHSRDELNRTLYRFLGVFAIDVDKSSDEVKVFSRVYSRVNVYRSQN",2
